# Test results reported in US20050171014A1 (GOVERNMENT OF THE UNITED STATES OF AMERICA REPRESENTED BY …, published 2005).
# Non-standard residues stand in square brackets, D forms with d. HTI‑286 = hemiasterlin derivative, cytotoxic agent; Cha = N[C@@H](CC1CCCCC1)C(=O)O; Nle = CCCC[C@H](N)C(=O)O
# B1: HTI-286-Cha-Leu-Ala-Leu-Ala-EEEAYGW-Nle-DF-NH2 (peptide)
# peptide: {HTI‑286}-[Cha]LALAEEEAYGW[Nle]DF-NH2
# What was measured:
# [1] = target: T1, gastrin receptor; experiment: cell-based or functional assay
# T1 sequence (P32239 whole entry, species assumed, looked up): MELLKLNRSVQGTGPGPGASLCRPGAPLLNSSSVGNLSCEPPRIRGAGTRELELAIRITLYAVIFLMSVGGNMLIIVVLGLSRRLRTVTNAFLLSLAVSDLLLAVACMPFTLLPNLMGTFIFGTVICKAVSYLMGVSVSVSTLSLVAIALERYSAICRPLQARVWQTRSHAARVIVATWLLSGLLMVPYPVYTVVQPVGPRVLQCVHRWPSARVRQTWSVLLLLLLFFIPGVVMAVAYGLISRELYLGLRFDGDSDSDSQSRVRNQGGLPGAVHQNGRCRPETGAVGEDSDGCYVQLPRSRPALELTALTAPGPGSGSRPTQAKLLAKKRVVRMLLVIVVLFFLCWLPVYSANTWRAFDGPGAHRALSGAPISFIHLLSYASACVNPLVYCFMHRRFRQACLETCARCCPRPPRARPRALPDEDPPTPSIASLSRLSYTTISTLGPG
# [2] = target: low-affinity gastrin receptor of nontransfected cells; experiment: cell-based or functional assay
binder,measurement,setting,value
B1,"IC50, growth inhibition of gastrin receptor-expressing 3T3 cells (MTT or sulforhodamine assay)",[1],10 nM
same,"IC50, growth inhibition of nontransfected cells (MTT or sulforhodamine assay)",[2],300 nM
